Key:
CouR [1] = target: T1, CouR (Rhodococcus jostii, UniProt Q0S6D0); experiment: ([…] Å) and ITC; EMSA in support; format: binding
T1 construct: gene RHA1_ro05125; full-length, homodimer; crystal model residues 4–146
T1 sequence (Q0S6D0 1-146): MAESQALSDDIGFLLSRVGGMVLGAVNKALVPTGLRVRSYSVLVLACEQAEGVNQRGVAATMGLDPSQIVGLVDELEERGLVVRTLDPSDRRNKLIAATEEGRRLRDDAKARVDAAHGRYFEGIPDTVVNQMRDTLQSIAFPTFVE

CouR [2] = target: T2, CouR (Rhodococcus jostii, UniProt Q0S6D0, R38A); experiment: ITC; format: binding
T2 construct: gene RHA1_ro05125; full-length

CouR [3] = target: T3, CouR (Rhodococcus jostii, UniProt Q0S6D0, R36A); experiment: ITC; format: binding
T3 construct: gene RHA1_ro05125; full-length

CouR [4] = target: T4, CouR (Rhodococcus jostii, UniProt Q0S6D0, R36A/R38A); experiment: ITC; format: binding
T4 construct: gene RHA1_ro05125; full-length

CouR [5] = target: T5, CouR (Rhodococcus jostii RHA1, UniProt Q0S6D0 1-146); experiment: EMSA; 25-200 nM CouR; EMSA: 20 mM HEPES pH 7.6, 10 mM (NH4)2SO4, 30 mM KCl, 1 mM DTT, 1 mM EDTA, 0.2% Tween 20, 100 ug/ml poly[d(I-C)], 1 nM probe, 25 C, 20 min; conditions: protein: recombinant; tags: His-tag removed by Factor Xa; extra N-terminal His residue remains; chain copies: 2; label: 3' DIG-11-ddUTP (probe); blunt
T5 sequence: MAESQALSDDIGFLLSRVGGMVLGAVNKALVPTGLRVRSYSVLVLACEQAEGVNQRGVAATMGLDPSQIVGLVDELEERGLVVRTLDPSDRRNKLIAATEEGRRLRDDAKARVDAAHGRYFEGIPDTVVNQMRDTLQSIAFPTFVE

CouR R38A = target: T6, CouR R38A (Rhodococcus jostii RHA1, UniProt Q0S6D0 1-146, R38A); experiment: EMSA; 50 or 200 nM protein; EMSA: 20 mM HEPES pH 7.6, 10 mM (NH4)2SO4, 30 mM KCl, 1 mM DTT, 1 mM EDTA, 0.2% Tween 20, 100 ug/ml poly[d(I-C)], 1 nM probe, 25 C, 20 min; conditions: protein: recombinant; tags: His-tag removed by Factor Xa; extra N-terminal His residue remains; chain copies: 2; label: 3' DIG-11-ddUTP (probe); blunt
T6 sequence: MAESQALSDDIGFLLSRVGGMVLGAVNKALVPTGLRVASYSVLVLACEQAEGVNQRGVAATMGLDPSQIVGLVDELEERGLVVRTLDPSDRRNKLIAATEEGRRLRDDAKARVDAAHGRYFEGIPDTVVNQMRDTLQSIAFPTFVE

CouR R36A = target: T7, CouR R36A (Rhodococcus jostii RHA1, UniProt Q0S6D0 1-146, R36A); experiment: as above; conditions: protein: recombinant; tags: His-tag removed by Factor Xa; extra N-terminal His residue remains; chain copies: 2; label: 3' DIG-11-ddUTP (probe); blunt
T7 sequence: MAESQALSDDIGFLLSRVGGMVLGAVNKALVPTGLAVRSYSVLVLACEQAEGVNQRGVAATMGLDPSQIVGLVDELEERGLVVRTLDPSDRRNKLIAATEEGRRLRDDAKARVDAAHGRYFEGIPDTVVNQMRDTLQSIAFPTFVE

CouR R36A/R38A = target: T8, CouR R36A/R38A (Rhodococcus jostii RHA1, UniProt Q0S6D0 1-146, R36A;R38A); experiment: as above; conditions: protein: recombinant; tags: His-tag removed by Factor Xa; extra N-terminal His residue remains; chain copies: 2; label: 3' DIG-11-ddUTP (probe); blunt
T8 sequence: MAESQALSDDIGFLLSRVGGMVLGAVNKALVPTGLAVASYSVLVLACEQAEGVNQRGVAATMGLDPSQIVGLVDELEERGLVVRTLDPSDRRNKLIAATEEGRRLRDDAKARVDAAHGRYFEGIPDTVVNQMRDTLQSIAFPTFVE

CouR [6] = target: T5, CouR; experiment: competition; 1 uM unlabelled vs 1 nM DIG-couRp_couNp, 200 nM CouR; EMSA: 20 mM HEPES pH 7.6, 10 mM (NH4)2SO4, 30 mM KCl, 1 mM DTT, 1 mM EDTA, 0.2% Tween 20, 100 ug/ml poly[d(I-C)], 1 nM probe, 25 C, 20 min; conditions: protein: recombinant; tags: His-tag removed by Factor Xa; extra N-terminal His residue remains; chain copies: 2; blunt

With `CC(C)(COP(=O)(O)OP(=O)(O)OC[C@H]1O[C@@H](n2cnc3c(N)ncnc32)[C@H](O)[C@@H]1OP(=O)(O)O)[C@@H](O)C(=O)NCCC(=O)NCCSC(=O)/C=C/c1ccc(O)cc1` [p-coumaroyl–CoA] the Kd (CouR [1]) was 11 µM, the Kd (CouR [2]) was 25 µM and the Kd (CouR [3]) was 28 µM. It also gave a Kd (CouR [4]) of 89 µM.

B1: couRp_couNp (dsDNA)
DNA 1: CATTGATGATTGAGAATGTCAATGATTAAGG
DNA 2: CCTTAATCATTGACATTCTCAATCATCAATG
B1: binds (CouR [5]); no binding (CouR R38A); no binding (CouR R36A). B1: no binding (CouR R36A/R38A).

B2: couTp (dsDNA)
DNA 1: CATTAATCATTGAACTTGTCAATGGAAGAGA
DNA 2: TCTCTTCCATTGACAAGTTCAATGATTAATG
B2: binds (CouR [6]).

B3: couRp_couNp_m (dsDNA)
DNA 1: CATTGATGTAACTGAATGAGTTAGATTAAGG
DNA 2: CCTTAATCTAACTCATTCAGTTACATCAATG
B3: no binding (CouR [5]).

B4: couHp (dsDNA)
DNA 1: TATCAATCATTGATAATGTCAATGATTGACT
DNA 2: AGTCAATCATTGACATTATCAATGATTGATA
B4: binds (CouR [6]).

— PMC4737184, “The activity of CouR, a MarR family transcriptional regulator, is modulated through a novel molecular mechanism” (Nucleic Acids Research, 2015)
